Results from paper doi:10.1101/2024.09.20.614183, “Rubisco packaging and stoichiometric composition of a native β-carboxysome” (bioRxiv, 2024).

Biological target: T1, Rubisco L8S8 hexadecamer (Form IB ribulose 1,5-bisphosphate carboxylase/oxygenase) of Synechococcus elongatus … (Synechococcus elongatus PCC7942 …, UniProt Q31NB3 1-472; Q31NB2 1-111)
T1 construct: RbcL, Rubisco large subunit, Synechococcus elongatus PCC7942; printed MW 52.4 kDa; RbcS, Rubisco small subunit, Synechococcus elongatus PCC7942; printed MW 13.3 kDa; Native holoenzyme imaged inside isolated β-carboxysomes; never isolated on its own; also called Rubisco complex; Rubisco holoenzyme; source: endogenous, inside β-carboxysomes purified from Syn7942 (sucrose gradient …)
Test: cryo-EM structure; cryo-electron tomography and subtomogram averaging (emClarity) of Rubisco inside intact β-carboxysomes isolated from Syn7942 grown under low light; 185 carboxysomes; D4 symmetry applied; 3.5 Å
Settings: partners not purified

T1 sequence (Q31NB2 whole entry, chain 2 of 2, other chains not shown): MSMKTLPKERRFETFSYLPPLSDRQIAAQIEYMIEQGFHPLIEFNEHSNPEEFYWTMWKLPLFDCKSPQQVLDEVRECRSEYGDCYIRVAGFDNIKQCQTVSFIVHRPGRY

stoichiometry N: 4 SSUL domains per Rubisco
B1: CcmM, Rubisco-scaffolding linker protein of the Syn7942 β-carboxysome (natural protein, UniProt Q03513-2 1-324, looked up)
chain: MSAYNGQGRLSSEVITQVRSLLNQGYRIGTEHADKRRFRTSSWQPCAPIQSTNERQVLSELENCLSEHEGEYVRLLGIDTNTRSRVFEALIQRPDGSVPESLGSQPVAVASGGGRQSSYASVSGNLSAEVVNKVRNLLAQGYRIGTEHADKRRFRTSSWQSCAPIQSSNERQVLAELENCLSEHEGEYVRLLGIDTASRSRVFEALIQDPQGPVGSAKAAAAPVSSATPSSHSYTSNGSSSSDVAGQVRGLLAQGYRISAEVADKRRFQTSSWQSLPALSGQSEATVLPALESILQEHKGKYVRLIGIDPAARRRVAELLIQKP
notes: CcmM, Synechococcus elongatus PCC7942; Mixture of CcmM58 and CcmM35 in the native carboxysome; only an SSUL module is resolved; also called CcmM SSUL; CcmM58; source: endogenous, inside β-carboxysomes purified from Syn7942 (sucrose gradient ultracentrifugation)
